Test results taken from the DeepSol protein solubility set.

Assay: soluble on expression in E. coli; label from the status in PepcDB or PDB records

Row | Sequence | soluble on expression in E. coli
1 | MERELAHWVERLRERAEAEGLSFPPVAFQEVGPEEMAMLAAYGGFPRRYPHWRWGSAYLHYRETYRYGLARIYELVVNTVPVQAYLLRGNPLLAQKLVVAHVYAHADFFQNNLAFKPIPKDMLAEMAHHAAYVERAMERHGARSVEEFLDLALSLENLIDPHAPYIQRPAQKEEEAPKRLPVRPYLDPYVNPAPAFPKEAEEGASPEPLPPRPTRDILGFLARHAPLAPWQKGILEIVREESLYFAPQAATKILNEGWATYWHTRLLLPLLTPEEALEFAEMQANLLAPHGLNPYRLGYHLLMEVEERWDKGRFGPEYEALPLGERLRYERPTGEGRKKLFQVRTVYTDLNFLEEFLTPEFALRRGLFALEDLPRFAEAKKALLFRLTNLGYPIVELVDANYQNRGELLLAHAYEGVELDLRKTKAVLENLHRLWGRPVHLKTVVGGKETLLSAGA | soluble
2 | MGSDKIHHHHHHMDIYEKYGLKPVINADGKMTILGVSQVSDQVAAAQKQGAQNFFEMAELTVQTGRYLADLIGSEDALIVNSASAGIAQVLAGIIGRGNAYHVTHPYTTQITQREVIMPLGHDVDYGAPVDVMLAVAGAQPVLAGYANRCTAEQLAMQITPQTVAILYIKSHHTVQKSMLTIADALQVAHDHHLPLVLDAAAEGDLRRYLQLGVDVVIYSGAKAISGPASGLVLGRQTYVEWARQQNYGIGRAMKIGKENILGLVAAVEQYLTTGPESGASMKARLAPFIAELQTLPNVQVEMVQDGAGRDIFRASVRIAEAAKICQALRQGRPAIYPREYRVNEGLIEFDIRALTSAEMTQIVERLRTIIEEESTCN | not soluble
3 | MIFLNRERKGETNDHFDVNRVKFDDLGIPQDTGGLNRIRFKGENLGIMPTQLGHITPWLYRHFEYAYHVALQFNQHQKFQKLQKLRKLQKELPIAERAGEIVELLKTNQVLIVAGDTGCGKSTQVPQYLLKAGFTGVACTQPRRIACTALARRVAYETLNQYGSEVAFQIRFETTKSQKTKLLFLTEGLLLRQMEKDSLLEKYNVIILDEVHERHLTSDLLIGLLRDLCTKRDDLKLILMSATINLDLFKGYFEGAPVVQVPGRLFPIDVRWHPIKQFIDQSDKKTHKIDPEPYLKILELIDKQFPSTQRGDALIFLNGVAEISMVAEHLKNYAELTNGWIILMLHSTLSVEEQDKVFDQAPVGIRKCILSTNVAETSVTIDGIRFVIDSGKVNLIKHEPGTGTQKLTEFWVSKASANQRKGRAGRTGPGICYRLYSQEQFEKMDDFTVSEINRVSLQEMALKMISLNLGLDPRTFPFIEKPSEDVLNEGLEVLKFQRVLRSDRGDILTLTALGNMVSKLPVEVPIAKMLVYGCVVDELEVMLTVAAGLSVQSPFTNRSYRELEIVERRASLTSPLGDPFTLISIFREWVLQKAFEGTARRWTMENGIDEHRLYEISKLRAQYRQILEDAGLVEKASAAETGEDDSRQRRIDQGEKRKLFDLKKSQRNNDRRQKVLNANKHFDKILEDKEEEDLEAEKDPLKADVKTVEFLLSHKQRDVENIRKTHKISRKTAEVVRVIIAAGLYPNFSILDPVNKYGYGQEMFTHTRLKPFTQIHPNSSIAQYHPETIDPRQGSDGFSRLHQIPFYGLLLETTKPYICNVMPVPAVYTLLVAQKIVIEDDWSQLSIDDFLELRFRSSTDCRSVLLDAKEIRYELTKGLAAKLVGEAGFSGRRRLAKYIDLLNQSIVEKGIEVAVRRNVHPPKVLTGIGIHSPDGGIDKEEDVDDLVQRFERDQEPVHSAREEELEDQKVLDELRADVMCPPTRDMIEEAEKLKELKKKEIPKESYYEKLLKRQKAKEDDEKTEKKPKLEPLDTMEE | soluble
4 | MSLQPNDITFFQRFQNDILAGRKTITIRDASESHFKAGDVLRVGRFEDDGYFCTIEVTGTSTVTLDTLNEKHAQQENMSLDELKRVIAEIYPNQTQFYVIDFKCLEGHHHHHH | soluble
5 | GSPELGFSFDYAYQPIVNLHDQSIFAHEALVRGPNGEGAMSVLNQVTDQNRYRFDQKCRTTAIAGAAKLGMTERLSINFLPNAVYRPELCIRSTLEAAKQHDFPIERLIFETIESEHVDNNNHLSNILREYREFGFMTAIDDFGAGYSGLTLLADFQPDLIKLDMNLVRDIHRDRARQAIVRGVVTMCKDLGIKLIAEGIEHIEERDFLADCGISLMQGYLFAKP | not soluble
6 | MAHHHHHHMLTIRVGNLPVCLCSNLRNTFNPTYAFGVKRNDGTVALLDGKSGHLLLPFDAEGNIIVTPGADYQLVFLSNDSTSSTVHTTQGLGKGGTNKTSHDFELTKALAKDGSIHREKRRLDDGRATSRERFHKGNAHYSVSDSKPTKRRKRDHSVDKDAVVEAEFGSQSINKKERSVKASRKDSNREDSDDPDDIPIFCTLAGKPTPAPISSNHTPTVSPAPKEVYLVDNFDPTTRPAHSEEGALDSSATELISS | soluble
7 | MNVVVERKNVRNVRIQVLADGKVRVVAPPDFDVDSFISKHADWIKKKRAEIESLAEEIKGKERMLLLNGKFYHLVKDSGFEIKEGEEVGVVKYYSLRNLKRNLASILREELKRNVSFYSRLLGINYGRIFIKMQKTKWASCSSKGNLSFNLASLALPEKLREYIVVHELVHLLEPKHSRLFWETVGFYYPEYEEAERELKKYWIFVERNEVWRMLRALK | soluble
8 | MSLDKQNHKIFEILADKVSAKDNVITASGNAILLNYDVYILADKVRYDTKTKEALLEGNIKVYRGEGLLVKTDYVKLSLNEKYEIIFPFYVQDSVSGIWVSADIASGKDQKYKVKNMSTSGCSIDNPIWHVNATSGSFNMQKSHLSMWNPKIYVGDIPVLYLPYIFMSTSNKRTTGFLYPEFGTSNLDGFIYLQPFYLAPKNSWDMTFTPQIRYKRGFGLNFEARYINSKNDRFLFNARYFRNYTQYVKRYDLRNQNIYGFEFLSSSRDTLQKYFHLKSNIDNGHYIDFLYMNDLDYVRFEKVNKRITDATHMSRANYYLQTENNYYGLNIKYFLNLNKINNNRTFQSVPNLQYHKYLNSLYFRNLLYSVDYQFRNTAREIGYGYVQNALNVPVGLQFSLFKKYLSLGLWNDLQLSNVALMQSKNSFVPTIPNESREFGNFVSSNFSMYVNTDLAREYNKLFHTIQLEAIFNIPYYTFKNGLFSQNMYALSAQALNSYTSPLLRDYDYQGRLYDSVWNPSSILPSNASNKTVDLTLTQYLYGLGGQELLYFKISQLINLDDKVSPFRMPLESKIGFSPLTGLNIFGNVFYSFYQNRLEEISVNANYQRKFLSFNLSYFLKNNFSSGINSIVENEGHHHHHH | not soluble
9 | MTDLEVSVDDLVKLLSPTMSLIVRRKTMEVVTQLGTPLDGSAGKYFQAQDFALGKAICQLCEATSSDRTETLAALTNFTSGSIEAADFVLDKSKCVEIAYTAVVTNALYSSVASRLLVNVSRHFPDRVDHKLKARNANYIGQLLNEIKKSVETGDEDRAKFVGFTVVNLSVLPPIRQNIVQGGENESSPPSTTMKLLPIVCELLTTAETTEIRECAADVLRNLAFDDSLHGSLLDTSDEYLCSILAPLMDVNDNLDEEEIAKLPVRLQYYEKERDSSDIVRQKLIEALFQLCATKHGREVLRAKGVYPAMRELDKGTETAEDKHKKTLLSSQQEHTLHALIGILIRYESEMDVDPELSSIRELGTSEVTEITKTS | not soluble
10 | MGSDKIHHHHHHMLKRILVIIGLAVLATACSNAPRTVSHQVISENDDIQLTGLINNLEKDNRTGIFHKVRTNRSSALMGDKALASVYNEWVGTRYRMGGTTKRGIDCSAFMQTTFSEVFGIELPRSTAEQRHLGRKINKSELKKGDLVFFRKNNHVGVYIGNNQFMHASTGQGVTISSLDEKYWARTYTQSRRIM | not soluble
11 | MGSDKIHHHHHHMSQFVVDSSFWSLFPDAKIGVLLLKDYKTPAQSPDELVKLLEESNGIAQKFLTEDTFSENEVIRTYRQAYQKFKTKKGARSSIEALLKRSTSDRPVTTISPLVDIYNAASLRFGLPCGAEDLDTFVGNLQLTVTEGGDEFYLIGDETNNPTLPGEVCYKDDKGAVCRCFNWRDGERTMITDETKNAFLVMELVNSDRVEDLENALDFISQQAETFLGVVPEKYLLDCDRPGIAL | not soluble
12 | MGSDKIHHHHHHMKIVFITTVASSIYGFRAPVIKKLIGKNHQVYAFVSEFSDNELDIIREMGVTPVTYRSNRSGVNPFSDIKSTFLIFKALKKISPDLVFPYFAKPVIFGTFAAKLAGVPRIVGMLEGLGFAFTPQPEGIPLKTKIIKGILIALYRIALPMLESLIVLNPDDKDELLHQYGIKIKNIHILGGIGLDLRQYPYSEADIPDEKEPVKFLFIGRFLKEKGIDDFIRAAEQVKGKYPDTVFTALGAIDKSRGGGGDLERFIARDIIRFPGFVNNVSEVIKAHHIFVLPSYYREGVPRSTQEAMAVGRAVITTDVPGCRETVADKVNGFLIEPWNPRILAEKMIYFIENRAAVRLMANASYAIAKDKFDAEKVDLKFLDILKA | not soluble
